Data reported in the RNAGym collection of RNA variant scans (doi:10.1073/pnas.2313332121).

B1: TPR t1 (parent)
chain: GACCAAUCUGCCCUCAGAGCUCGAGAACAUCUUCGGAUGCAGAGGAGGCAGGCUUCGGUGGCGCGAUAGCGCCAACGUCCUCAACCUCCAAUGCAUCCCACCACAUGAUGAUGCCUGAAGAGCCUUGGUUUUUUG

Variants of: B1
Test: polymerase ribozyme fitness, log enrichment relative to wild type (log ratio); higher = more active; in vitro selection for triplet polymerase activity
Outline: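 To select mutant libraries of each subunit of a heterodimeric triplet polymerase ribozyme, built by PCR and transcribed, each was annealed with a biotinylated primer, partner subunit and triplets, then incubated frozen at −7 °C. Extended constructs were gel-excised, captured on streptavidin beads and amplified by RT-PCR, in one round carried out in triplicate. Illumina sequencing of input and output libraries kept genotypes with ≥10 input reads and ≥1 read per output. Fitness is the base-2 logarithm of genotype enrichment relative to wild-type enrichment, from inverse-variance-weighted replicate averages.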

Variant | polymerase ribozyme fitness (log ratio)
GACCAAUCUGCCCUCAGAGCUCGAGAAAAUCUUCCGAUGCAGAGGAGGCAGGCUUCGGUGACGCGAUAGCGCCAACGUCCUCACCCUCCAAUGCAUCCCACCGCAUGAUGAUGACUCAAGAGCCUUGGUUUUUUG [C28A G35C G61A A84C A103G C114A G117C] | -7.02
GACCAAUCUGCCCUCAGAGCUCGAGAUCAUCUUCGGAUGCAGAGGAGGCAGGCUUCGGUGGCGCGAUAGCGCCAACGUCCUCAACCUUCAAUGCAUCCCACAACAUGAUGAUGCCUGAAGAGCCUUGGUUUUUUG [A27U C88U C102A] | -5.16
GACCAAUCUGCCCUCAGAGCUCGAGAAAAUCUUCGGAUGCAGAGAAGGCAGGCUUCGGUGGCGCGAUAGCGCCAACGUCCUCAACCUCCAAUGCAUCCCACCACAUGAUGAUGCCUGAAGAGCCUUGGUUUUUUG [C28A G45A] | -5.12
GACCAAUCUGCCCUCAGAGCUCGAGAUCAUCUUCGGAUGCAGAGGAGGCAGGCUUCGGUGGCGCGAUAGCGCCAACGUCCUCAACCUCUAAUGCAUCCCACCACAUGAUGAUGCCUGAAGAGCCUUGGUUUUUUG [A27U C89U] | -2.8
GACCAAUCUGCCCUCAGAGCUCGAGAAAAUCUUCGGAUGGAGACGAGGCAAGCUUCGGUGGCGCGAUAGCGCCAACGUCCUCAACCUCCAAUGCAUCCCACCACAUGAUGAAGCCUGAAGAGCCUUGGUUUUUUG [C28A C40G G44C G51A U112A] | -6.79
GACCAAUCUGCCCUCAGAGCUCGAGAUCAUCUUCGGAUGCAGAGGAGGCAGGCUUCGGUGGCGCGAUAUCGCCAACGUCCUCAACCUCCAAUGCAUCCCACCACAUGAUGAUGCCUGAAGAGCCUUGGUUUCUUG [A27U G69U U132C] | -1.95
GACCAAUCUGCCCUCAGAGCUCGAGAAAAUCUUCGGAUGCAGAGGAGGCAGGCUUCGGUGGCGCGAUAGCGCCAACGUCCUCUACCUCCAAUGCAUCCCACCACAUGAUGAUGCCUGAAGAGCCUUGGUUUUUUG [C28A A83U] | -2.16
GACCAAUCUGCCCUCAGAGCUCGAGAUCAUCUUCGGAUGCAGAGGAGGCAGGCUUCGGUGGCGCGAUAGCGCCAACGUCCUCAACCUCCAAUGCAUCCCACCACAUGAUGAUUCCUGAAGAGCCUUGGUUUUUUG [A27U G113U] | -4.99
GACCAAUCUGCCCUCAGAGCUCGAGAUCAUCUUCGGAUGCAGAGGAGGCAGGCUUCGGUGGCGCGAUAGCGCCAACGUCCUCAACCCCCAAUGCAUCCCACCACAUGAUGAUGCCUGAAGAGCCUUGGUUUUUUG [A27U U87C] | -2.89
GACCAAUCUGCCCUCAGAGCUCGAGAUCAUCUUCGGAUGCAGAGGACACAGGCUUCGGUGGCGCGAUAGCGCCAACGCCCUCAACCUCCAAUGCGUCCCACCACAUGAUGAUGCCUGAAGAGCCUUGGUUUUUUG [A27U G47C G48A U78C A95G] | -5.5
GACCAAUCUGCCCUCAGAGCUCGAGAUCAUCUUCGGAUGCAGAGGAGGCAGGCUUCGGUGGCGCGAUAGCGCCAACGUCCUCAACCUCCAAUGCAUCCCACCACAUGAUGAUGCCUGAAGAGUCUUGGUUUUUUG [A27U C123U] | -1.65
GACCAAUCUGCCCUCAGAGCUCGAGAUCAUCUUCGGAUGCAGAGGAGGCAGGCUUCGGUGGCGCGAUAGCGCCAACGUCCUCAACCUCCAAUGCAUCCCACCACAUGAUGAUGCCUGAAGAGGCUUGGUUUUUUG [A27U C123G] | -0.165
GACCAAUCUGCCCUCAGAGCUCGAGAUCAUCUUCGGAUGCAGAGGAGGCAGGCUUCGGUGGCGCGAUAGCGCCAACGUCCUCAACCUCCAAUGCAUCCCACCACAUGAUGAUGCCUGAAGAGCCUUGGUUUUUUC [A27U G135C] | -3.11
GACCAAUCUGCCCUCAGAGCUCGAGAAAAUCUUCGGAUGCAGAGGUGGCAGGCUUCGGUGGCGCGAUAGCGCCAACCUCCUCAACCUCCAAUGCAUCCCACCACAUGAUGAUGCCUGAAGCGCCUUGGUUUUUUG [C28A A46U G77C A121C] | -4.52
GACCAAUCUGCCCUCAGAGCUCGAGAUCAUCUUCGGAUGCAGAGGAGGCAGGCUUCGGUGGCGCGAUAGCGCCAACGUCCUCAACCUCCAAUGCAUACCACCACAUGAUGAUGCCUGAAGAGCCUUGGUUUUUUG [A27U C97A] | -7.67
GACCAAUCUGCCCUCAGAGCUCGAGAUCAUCUUCGGAUGCAGAGGAGGCAGGCUUCGGUGGCGCGAUAGUGCCAACGUCCUCAACCUCCAAUGCAUCCCACCACAUGAUGAUGCCUGAAGAACCUUGGUUUUUUG [A27U C70U G122A] | -3.96
GACCAAUCUGCCCUCAGAGCUCGAGAUCAUCUUCGGAUGCAGAGGAGGCAGGCUUCGGUGGCGCGAUAGCGCCAACGUCCUCAACCUCCAAUGGAUCCGACCAUAUGAUUAUGGCUGAAGAGCCUUGGUUUUUUG [A27U C94G C99G C104U G110U C114G] | -6.8
GACCAAUCUGCCCUCAGAGCUCGAGAUCAUCUUCGGAUGCAGAGGAGGCAGGCAUCGGUGGCGCGAUAGCGCCAACGUCCUCAACCUCCAAUGCAUCCCACCACAUGAUGACGCCUGAAGAACCUUGGUUUUUUG [A27U U54A U112C G122A] | -2.2
GACCAAUCUGCCCUCAGAGCUCGAGAAAAUCUUCGGAUGCAGAGGAGGCAGGCUUCGGUGGCGCGCUAGCGCCAACGUCCUCAACCUCCAAUGCAUCCCACCACAUGAUGUUGCGUGAAGAGCCUUGGUUUUUUG [C28A A66C A111U C115G] | -6.53
GACCAAUCUGCCCUCAGAGCUCGAGAAAAUCUUCGGAUGCAGAGGAGGCAGGCUUCGGUGGCGCGAUAGCGCCAACGUCCUCAAUCUCCAAUGCAUCCCACCACAUGAUGAUGCCUGAAGAGCCUUGGUUUUUUG [C28A C85U] | -4.56
GACCAAUCUGCCCUCAGAGCUCGAGAUCAUCAUCGGAUGCAGAGGAGGCAGGCUUCGGUGGCGCGAUAGCGUCAACGUCCUCAACCUCCAAUGCAUCCCACCACAUGAUGAUGACUGAAGAGCCUUGGUUUUUUG [A27U U32A C72U C114A] | -5.96
